# Bridges are numbered along the chain shown (N, C = ends).
# T1: Biotinylated target ligand human DLL3 (human, UniProt Q9NYJ7 27-492, limits assumed, biotinylated (site not stated))
# T1 sequence: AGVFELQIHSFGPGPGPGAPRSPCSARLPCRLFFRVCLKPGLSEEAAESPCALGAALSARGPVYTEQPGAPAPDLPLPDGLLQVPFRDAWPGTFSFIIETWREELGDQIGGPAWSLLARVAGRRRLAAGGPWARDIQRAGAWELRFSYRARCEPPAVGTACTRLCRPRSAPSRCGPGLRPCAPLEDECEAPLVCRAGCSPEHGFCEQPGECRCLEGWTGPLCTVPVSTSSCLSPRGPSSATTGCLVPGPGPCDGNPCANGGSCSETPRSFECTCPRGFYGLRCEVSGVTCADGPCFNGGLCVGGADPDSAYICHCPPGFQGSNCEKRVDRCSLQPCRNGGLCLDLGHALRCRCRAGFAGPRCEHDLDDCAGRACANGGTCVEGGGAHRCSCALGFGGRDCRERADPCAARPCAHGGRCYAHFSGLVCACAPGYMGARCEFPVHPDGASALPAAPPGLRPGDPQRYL
# Columns and labels:
# [1] = biological target: T1, Biotinylated target ligand human DLL3; assay: SPR, biotinylated human DLL3 on streptavidin chip; B = 1.0 nM<KD<=10 nM; lower limit of grade B
# Description: (§1) Biotinylated target ligand human DLL3 was immobilized on a streptavidin sensor chip. A reference surface was set up for nonspecific binding and refractive index changes. For analysis of the kinetics of interactions, varying concentrations of samples were injected at a flow rate of 100 μL/minute using running buffer containing 20 mM phosphate buffer with 2.7 mM KCl, 137 mM NaCl, 0.05% Surfactant P20 and 2% DMSO. Sensorgram curves were fitted with 1:1 binding model, and affinity and kinetic parameters were obtained using Biacore Insight evaluation 4.0. software.
# [2] = biological target: T1, Biotinylated target ligand human DLL3; assay: SPR, biotinylated human DLL3 on streptavidin chip; B = 1.0 nM<KD<=10 nM; upper limit of grade B
# Description: as §1
binder,measurement,setting,value
Ac-MWTICNNWHDCWP-NH2 (disulfide 5-11) [Cpd No. 1],Kd,[1],> 1 nM
same,Kd,[2],≤ 10 nM

# — patent US20250049970A1, “DLL3 TARGETING PEPTIDES AND CONSTRUCTS THEREOF” (MARIANA ONCOLOGY INC., priority 2023, published 2025)
